In PMC9482650, “Quantitative fragmentomics allow affinity mapping of interactomes” (Nature Communications, 2022):

What was measured:
Assay in all cases: holdup assay
Design in all cases: key: below the threshold = too weak to quantify, mostly under pKd 3.1 to 4
Settings in all cases: plain residues with an end cap or a label only (N-terminal biotin on a linker: ado-ado)
APBA1_1, Q02410 = target: T1, APBA1_1, Q02410
T1 sequence (Q02410 651-752, limits assumed, looked up): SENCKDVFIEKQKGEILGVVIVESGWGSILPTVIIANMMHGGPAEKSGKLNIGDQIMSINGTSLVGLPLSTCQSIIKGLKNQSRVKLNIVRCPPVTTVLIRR

APBA2_1, Q99767 = target: T2, APBA2_1, Q99767
T2 sequence (Q99767 563-664, limits assumed, looked up): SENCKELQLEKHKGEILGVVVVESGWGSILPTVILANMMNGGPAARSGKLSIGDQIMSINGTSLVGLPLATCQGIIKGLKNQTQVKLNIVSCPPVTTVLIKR

APBA2_2, Q99767 = target: T3, APBA2_2, Q99767
T3 sequence (Q99767 654-744, limits assumed, looked up): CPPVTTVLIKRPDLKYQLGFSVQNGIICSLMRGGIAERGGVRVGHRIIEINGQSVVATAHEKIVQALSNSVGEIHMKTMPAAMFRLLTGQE

ARHGEF12, Q9NZN5-2 = target: ARHGEF12, Q9NZN5-2
DLG1_3, Q12959 = target: DLG1_3, Q12959
DLG3_1, Q92796 = target: T4, DLG3_1, Q92796
T4 sequence (Q92796 125-227, limits assumed, looked up): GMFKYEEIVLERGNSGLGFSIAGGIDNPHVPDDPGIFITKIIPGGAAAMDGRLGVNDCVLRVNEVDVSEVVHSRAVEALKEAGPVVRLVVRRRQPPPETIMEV

DLG3_2, Q92796 = target: T5, DLG3_2, Q92796
T5 sequence (Q92796 221-321, limits assumed, looked up): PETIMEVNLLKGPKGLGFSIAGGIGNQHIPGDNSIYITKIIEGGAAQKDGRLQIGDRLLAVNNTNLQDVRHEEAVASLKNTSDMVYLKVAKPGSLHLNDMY

FRMPD3, Q5JV73 = target: FRMPD3, Q5JV73
GRASP, Q7Z6J2 = target: GRASP, Q7Z6J2
GRIP2_7, Q9C0E4 = target: GRIP2_7, Q9C0E4
HTRA2, O43464 = target: HTRA2, O43464
Inadl_10, Q8NI35 = target: Inadl_10, Q8NI35
Inadl_9, Q8NI35 = target: Inadl_9, Q8NI35
LIMK2, P53671 = target: LIMK2, P53671
LIN7A, O14910 = target: T6, LIN7A, O14910
T6 sequence (O14910 103-200, limits assumed, looked up): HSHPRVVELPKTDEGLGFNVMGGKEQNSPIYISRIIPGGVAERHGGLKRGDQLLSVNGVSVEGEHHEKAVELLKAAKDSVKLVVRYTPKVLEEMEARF

LIN7C, Q9NUP9 = target: T7, LIN7C, Q9NUP9
T7 sequence (Q9NUP9 88-185, limits assumed, looked up): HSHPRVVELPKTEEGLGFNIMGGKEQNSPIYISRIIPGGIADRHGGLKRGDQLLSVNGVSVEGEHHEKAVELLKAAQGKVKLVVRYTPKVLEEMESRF

LNX1_1, Q8TBB1 = target: LNX1_1, Q8TBB1
LNX1_2, Q8TBB1 = target: LNX1_2, Q8TBB1
MAGI2_6, Q86UL8 = target: MAGI2_6, Q86UL8
MAGI3_2, Q5TCQ9 = target: MAGI3_2, Q5TCQ9
PARD3B_1, Q8TEW8 = target: T8, PARD3B_1, Q8TEW8
T8 sequence (Q8TEW8 196-299, limits assumed, looked up): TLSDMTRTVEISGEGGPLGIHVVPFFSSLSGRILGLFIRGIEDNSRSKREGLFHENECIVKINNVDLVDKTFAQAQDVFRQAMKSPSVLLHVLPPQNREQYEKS

PCLO, Q9Y6V0 = target: T9, PCLO, Q9Y6V0
T9 sequence (Q9Y6V0 4491-4600, limits assumed, looked up): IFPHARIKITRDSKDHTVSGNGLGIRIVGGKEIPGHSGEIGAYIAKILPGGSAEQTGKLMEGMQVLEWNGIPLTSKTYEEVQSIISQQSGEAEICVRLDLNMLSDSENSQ

RAPGEF6, Q8TEU7 = target: T10, RAPGEF6, Q8TEU7
T10 sequence (Q8TEU7 525-625, limits assumed, looked up): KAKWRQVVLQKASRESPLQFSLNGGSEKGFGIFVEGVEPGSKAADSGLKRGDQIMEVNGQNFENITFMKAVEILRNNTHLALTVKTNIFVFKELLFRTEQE

SNTG2, Q9NY99 = target: T11, SNTG2, Q9NY99
T11 sequence (Q9NY99 68-166, limits assumed, looked up): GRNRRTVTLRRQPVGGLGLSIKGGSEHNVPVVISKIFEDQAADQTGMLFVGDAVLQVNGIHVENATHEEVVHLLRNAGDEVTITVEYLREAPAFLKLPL

TX1BP3, O14907 = target: T12, TX1BP3, O14907
T12 sequence (O14907 10-122, limits assumed, looked up): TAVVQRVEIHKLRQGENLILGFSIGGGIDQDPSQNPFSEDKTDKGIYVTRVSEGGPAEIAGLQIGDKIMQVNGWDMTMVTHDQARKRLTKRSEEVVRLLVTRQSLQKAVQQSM

Inadl_10, Q8NI35, sequence (Q8NI35 1673-1763): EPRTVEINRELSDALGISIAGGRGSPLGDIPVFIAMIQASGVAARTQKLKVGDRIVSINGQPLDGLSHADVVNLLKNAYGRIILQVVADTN
HTRA2, O43464, sequence (O43464 355-458): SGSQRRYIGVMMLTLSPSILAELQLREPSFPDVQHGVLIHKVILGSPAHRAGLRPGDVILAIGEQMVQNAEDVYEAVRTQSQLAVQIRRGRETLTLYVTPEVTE
LNX1_1, Q8TBB1, sequence (Q8TBB1 261-371): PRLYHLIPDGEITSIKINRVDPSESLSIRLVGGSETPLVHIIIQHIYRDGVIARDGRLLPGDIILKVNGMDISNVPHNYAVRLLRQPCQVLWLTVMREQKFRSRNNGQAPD
ARHGEF12, Q9NZN5-2, sequence (Q9NZN5 other isoform, or with tags, fused parts or gaps): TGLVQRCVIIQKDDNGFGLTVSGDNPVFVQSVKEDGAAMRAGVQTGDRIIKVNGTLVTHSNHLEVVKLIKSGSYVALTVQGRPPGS
DLG1_3, Q12959, sequence (Q12959 457-571): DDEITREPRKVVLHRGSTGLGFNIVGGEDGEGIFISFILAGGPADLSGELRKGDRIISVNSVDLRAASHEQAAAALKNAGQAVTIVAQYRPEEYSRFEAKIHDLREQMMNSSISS
GRIP2_7, Q9C0E4, sequence (Q9C0E4 934-1023): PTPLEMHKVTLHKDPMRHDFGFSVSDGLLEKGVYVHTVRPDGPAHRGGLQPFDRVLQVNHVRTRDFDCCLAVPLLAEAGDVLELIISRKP
LIMK2, P53671, sequence (P53671 143-248): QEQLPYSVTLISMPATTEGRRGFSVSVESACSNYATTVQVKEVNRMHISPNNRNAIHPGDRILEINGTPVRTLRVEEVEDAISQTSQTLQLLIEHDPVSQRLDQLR
FRMPD3, Q5JV73, sequence (Q5JV73 12-100): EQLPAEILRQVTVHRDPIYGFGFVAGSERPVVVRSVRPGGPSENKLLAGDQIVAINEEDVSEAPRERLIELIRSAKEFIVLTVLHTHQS
GRASP, Q7Z6J2, sequence (Q7Z6J2 96-193): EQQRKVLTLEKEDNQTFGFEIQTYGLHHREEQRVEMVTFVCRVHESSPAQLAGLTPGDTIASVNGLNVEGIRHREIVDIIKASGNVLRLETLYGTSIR
LNX1_2, Q8TBB1, sequence (Q8TBB1 371-470): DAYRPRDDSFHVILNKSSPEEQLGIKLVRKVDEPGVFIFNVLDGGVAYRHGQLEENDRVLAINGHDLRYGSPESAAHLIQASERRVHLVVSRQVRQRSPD
MAGI3_2, Q5TCQ9, sequence (Q5TCQ9 398-503): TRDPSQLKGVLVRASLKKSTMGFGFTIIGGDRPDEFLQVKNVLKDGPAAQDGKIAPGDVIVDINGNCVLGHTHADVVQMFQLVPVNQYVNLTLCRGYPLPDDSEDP
Inadl_9, Q8NI35, sequence (Q8NI35 1530-1615): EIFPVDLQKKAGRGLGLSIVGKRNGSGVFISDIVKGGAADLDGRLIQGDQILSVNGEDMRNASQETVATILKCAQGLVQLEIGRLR
MAGI2_6, Q86UL8, sequence (Q86UL8 1141-1229): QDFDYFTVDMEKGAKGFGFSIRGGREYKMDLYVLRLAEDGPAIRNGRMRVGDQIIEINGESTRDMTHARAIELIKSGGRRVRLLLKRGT

In the case of IQISELETNV [SLC1A7, O00341], the pKd (APBA1_1, Q02410) is reported as “below the threshold”, the pKd (APBA2_1, Q99767) is reported as “below the threshold” and the pKd (APBA2_2, Q99767) is reported as “below the threshold”. It also gave a pKd (ARHGEF12, Q9NZN5-2) of 3.71, a pKd (DLG1_3, Q12959) of 3.57 and a pKd (DLG3_1, Q92796) of 3.91. The pKd (DLG3_2, Q92796) was 4.66, the pKd (FRMPD3, Q5JV73) was “below the threshold” and the pKd (GRASP, Q7Z6J2) was “below the threshold”. For the same binder, the pKd (GRIP2_7, Q9C0E4) was “below the threshold”, the pKd (HTRA2, O43464) was “below the threshold” and the pKd (Inadl_10, Q8NI35) was “below the threshold”. The pKd (Inadl_9, Q8NI35) was “below the threshold”, the pKd (LIMK2, P53671) was “below the threshold” and the pKd (LIN7A, O14910) was 3.52. For the same binder, the pKd (LIN7C, Q9NUP9) was 3.97, the pKd (LNX1_1, Q8TBB1) was 3.91 and the pKd (LNX1_2, Q8TBB1) was “below the threshold”. For the same binder, the pKd (MAGI2_6, Q86UL8) was 4.31, the pKd (MAGI3_2, Q5TCQ9) was 4.28 and the pKd (PARD3B_1, Q8TEW8) was “below the threshold”. For the same binder, the pKd (PCLO, Q9Y6V0) was “below the threshold”, the pKd (RAPGEF6, Q8TEU7) was “below the threshold” and the pKd (SNTG2, Q9NY99) was 4.91. It also gave a pKd (TX1BP3, O14907) of 4.03.

With TNSKQGETTV [FZD1, Q9UP38] the pKd (APBA1_1, Q02410) was “below the threshold”, the pKd (APBA2_1, Q99767) was “below the threshold” and the pKd (APBA2_2, Q99767) was “below the threshold”. The pKd (ARHGEF12, Q9NZN5-2) was “below the threshold”, the pKd (DLG1_3, Q12959) was 4.13 and the pKd (DLG3_1, Q92796) was 4.37. For the same binder, the pKd (DLG3_2, Q92796) was 4.64, the pKd (FRMPD3, Q5JV73) was “below the threshold” and the pKd (GRASP, Q7Z6J2) was “below the threshold”. The pKd (GRIP2_7, Q9C0E4) was “below the threshold”, the pKd (HTRA2, O43464) was 3.55 and the pKd (Inadl_10, Q8NI35) was “below the threshold”. The pKd (Inadl_9, Q8NI35) was 3.57, the pKd (LIMK2, P53671) was “below the threshold” and the pKd (LIN7A, O14910) was 3.72. For the same binder, the pKd (LIN7C, Q9NUP9) was 4.45, the pKd (LNX1_1, Q8TBB1) was “below the threshold” and the pKd (LNX1_2, Q8TBB1) was 3.68. For the same binder, the pKd (MAGI2_6, Q86UL8) was 4.03, the pKd (MAGI3_2, Q5TCQ9) was 4.94 and the pKd (PARD3B_1, Q8TEW8) was “below the threshold”. The pKd (PCLO, Q9Y6V0) was “below the threshold”, the pKd (RAPGEF6, Q8TEU7) was 3.54 and the pKd (SNTG2, Q9NY99) was 4.16. The pKd (TX1BP3, O14907) was 4.17.

For QQGLLPHSSC [TYRO3, Q06418], the pKd (APBA1_1, Q02410) was “below the threshold”, the pKd (APBA2_1, Q99767) was “below the threshold” and the pKd (APBA2_2, Q99767) was “below the threshold”. For the same binder, the pKd (ARHGEF12, Q9NZN5-2) was 4.18, the pKd (DLG1_3, Q12959) was “below the threshold” and the pKd (DLG3_1, Q92796) was “below the threshold”. For the same binder, the pKd (DLG3_2, Q92796) was “below the threshold”, the pKd (FRMPD3, Q5JV73) was “below the threshold” and the pKd (GRASP, Q7Z6J2) was 3.97. For the same binder, the pKd (GRIP2_7, Q9C0E4) was “below the threshold”, the pKd (HTRA2, O43464) was “below the threshold” and the pKd (Inadl_10, Q8NI35) was “below the threshold”. The pKd (Inadl_9, Q8NI35) was “below the threshold”, the pKd (LIMK2, P53671) was “below the threshold” and the pKd (LIN7A, O14910) was “below the threshold”. The pKd (LIN7C, Q9NUP9) was 3.95, the pKd (LNX1_1, Q8TBB1) was “below the threshold” and the pKd (LNX1_2, Q8TBB1) was “below the threshold”. For the same binder, the pKd (MAGI2_6, Q86UL8) was “below the threshold”, the pKd (MAGI3_2, Q5TCQ9) was “below the threshold” and the pKd (PARD3B_1, Q8TEW8) was “below the threshold”. The pKd (PCLO, Q9Y6V0) was “below the threshold”, the pKd (RAPGEF6, Q8TEU7) was “below the threshold” and the pKd (SNTG2, Q9NY99) was “below the threshold”. The pKd (TX1BP3, O14907) was “below the threshold”.

With KSRPENGTVC [TMEM178B, H3BS89] the pKd (APBA1_1, Q02410) was “below the threshold”, the pKd (APBA2_1, Q99767) was “below the threshold” and the pKd (APBA2_2, Q99767) was “below the threshold”. The pKd (ARHGEF12, Q9NZN5-2) was 3.65, the pKd (DLG1_3, Q12959) was “below the threshold” and the pKd (DLG3_1, Q92796) was “below the threshold”. For the same binder, the pKd (DLG3_2, Q92796) was 3.54, the pKd (FRMPD3, Q5JV73) was “below the threshold” and the pKd (GRASP, Q7Z6J2) was “below the threshold”. The pKd (GRIP2_7, Q9C0E4) was “below the threshold”, the pKd (HTRA2, O43464) was “below the threshold” and the pKd (Inadl_10, Q8NI35) was “below the threshold”. For the same binder, the pKd (Inadl_9, Q8NI35) was “below the threshold”, the pKd (LIMK2, P53671) was “below the threshold” and the pKd (LIN7A, O14910) was “below the threshold”. The pKd (LIN7C, Q9NUP9) was “below the threshold”, the pKd (LNX1_1, Q8TBB1) was “below the threshold” and the pKd (LNX1_2, Q8TBB1) was 4.05. For the same binder, the pKd (MAGI2_6, Q86UL8) was “below the threshold”, the pKd (MAGI3_2, Q5TCQ9) was “below the threshold” and the pKd (PARD3B_1, Q8TEW8) was “below the threshold”. The pKd (PCLO, Q9Y6V0) was “below the threshold”, the pKd (RAPGEF6, Q8TEU7) was “below the threshold” and the pKd (SNTG2, Q9NY99) was “below the threshold”. For the same binder, the pKd (TX1BP3, O14907) was “below the threshold”.
